B1: xhCD8.1-hIL21 v2.63 (other)
chain: QGQDRHMIRMRQLIDRIDQLKNYVNDLVPEFLPAPEDVETNCEWSAFSCFQKAQLKSANTGNNERIINVSIKKIKRKPPSTNAGGGQGHELTCPSCDSYEKKPPKEFLERFKSLLQKMIHQHLSSRTHGSEDS
VH: QVQLVQSGAEVKKPGSSVKVSCKASGGTFSSYAISWVRQAPGQGLEWMGGIIPGYATANYAQKFQGRVTITADESTSTAYMELSSLRSEDTAVYYCARDAAGIRLFADWGQGTLVTVSS
VL: DIQMTQSPSSLSASVGDRVTITCRASQSIYGALNWYQQKPGKAPKLLIYGASNLQSGVPSRFSGSGSGTDFTLTISSLQPEDFATYYCQSTYTAPWTFGGGTKVEIK
notes: hIgG1/kappa; IL-21 part on one heavy-chain C-terminus via (G4S)3 linker
B2: xhCD8.1-hIL21 v2.64 (other)
chain: B1 chain with L13F, R16A, I17A, I74M
VH: B1 VH
VL: B1 VL
notes: as for B1
B3: xhCD8.1-hIL21 v2.65 (other)
chain: B1 chain with L13R, R16A
VH: B1 VH
VL: B1 VL
notes: as for B1
B4: xhCD8v11 (antibody, V domains shown)
VH: EVQLVESGGGLVQPGGSLRLSCAASGFTFSSYAMSWVRQAPGKGLEWVSDITYAGGSTAYADSVKGRFTISRDNAKNSLYLQMNSLRAEDTAVYYCARSNAYAWDDALDIWGQGTLVTVSS
VL: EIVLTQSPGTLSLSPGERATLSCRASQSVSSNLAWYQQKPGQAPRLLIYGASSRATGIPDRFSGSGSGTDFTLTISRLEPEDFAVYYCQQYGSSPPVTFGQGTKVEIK
notes: used as targeting arm of fusions
B5: xhCD8.1-hIL21 v29 (other)
chain: QGQDRHMIRMRQLIDIVDQLKNYVNDLVPEFLPAPEDVETNCEWSAFSCFQKAQLKSANTGNNERIINVSIKKLKRKPPGGGGEGGGGGEGGCPSCDSYEKKPPKEFLERFKSLLQKMIHQHLSSRTHGSEDS
VH: B1 VH
VL: B1 VL
notes: as for B1
B6: xhCD8.1-hIL21 v28 (other)
chain: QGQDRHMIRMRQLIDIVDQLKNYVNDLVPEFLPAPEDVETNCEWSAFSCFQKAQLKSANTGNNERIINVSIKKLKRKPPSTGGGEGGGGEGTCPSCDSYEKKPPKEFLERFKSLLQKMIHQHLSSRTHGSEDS
VH: B1 VH
VL: B1 VL
notes: as for B1
B7: xhCD8.1-hIL21 v31 (other)
chain: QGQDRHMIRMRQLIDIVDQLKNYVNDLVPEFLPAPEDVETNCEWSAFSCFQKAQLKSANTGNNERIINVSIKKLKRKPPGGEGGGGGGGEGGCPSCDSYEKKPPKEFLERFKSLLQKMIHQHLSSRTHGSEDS
VH: B1 VH
VL: B1 VL
notes: as for B1
B8: xhCD8.1-hIL21 v30 (other)
chain: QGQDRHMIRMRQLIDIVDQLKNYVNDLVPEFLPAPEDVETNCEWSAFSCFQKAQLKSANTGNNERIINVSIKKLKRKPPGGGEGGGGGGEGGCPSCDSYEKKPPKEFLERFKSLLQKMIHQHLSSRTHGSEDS
VH: B1 VH
VL: B1 VL
notes: as for B1
B9: xhCD8.1-hIL21 v27 (other)
chain: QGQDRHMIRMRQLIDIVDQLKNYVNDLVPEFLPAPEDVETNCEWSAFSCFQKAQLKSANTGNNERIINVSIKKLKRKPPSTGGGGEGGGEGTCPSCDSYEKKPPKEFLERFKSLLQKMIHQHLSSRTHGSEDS
VH: B1 VH
VL: B1 VL
notes: as for B1
B10: xhCD8.1-hIL21 v2.20 (other)
chain: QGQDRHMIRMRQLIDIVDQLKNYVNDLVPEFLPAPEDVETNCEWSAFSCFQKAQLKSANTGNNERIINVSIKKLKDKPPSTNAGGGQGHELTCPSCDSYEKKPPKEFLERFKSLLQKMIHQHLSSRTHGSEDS
VH: B1 VH
VL: B1 VL
notes: as for B1
B11: xhCD8.1-hIL21 v2.43 (other)
chain: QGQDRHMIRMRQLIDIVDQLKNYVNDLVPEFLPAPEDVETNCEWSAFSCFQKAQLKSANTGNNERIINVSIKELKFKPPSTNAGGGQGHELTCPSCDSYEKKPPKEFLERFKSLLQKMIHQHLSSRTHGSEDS
VH: B1 VH
VL: B1 VL
notes: as for B1
B12: xhCD8.1-hIL21 v2.45 (other)
chain: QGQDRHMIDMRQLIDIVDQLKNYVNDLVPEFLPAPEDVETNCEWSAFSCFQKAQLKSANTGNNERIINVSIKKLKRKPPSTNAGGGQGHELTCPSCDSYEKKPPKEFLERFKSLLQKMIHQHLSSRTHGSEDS
VH: B1 VH
VL: B1 VL
notes: as for B1
B13: xhCD8.1-hIL21 v2.42 (other)
chain: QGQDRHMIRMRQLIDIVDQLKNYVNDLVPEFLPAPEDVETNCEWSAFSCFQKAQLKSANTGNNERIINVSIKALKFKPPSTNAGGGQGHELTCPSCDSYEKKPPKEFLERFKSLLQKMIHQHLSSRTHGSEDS
VH: B1 VH
VL: B1 VL
notes: as for B1
B14: xhCD8.1-hIL21 v2.46 (other)
chain: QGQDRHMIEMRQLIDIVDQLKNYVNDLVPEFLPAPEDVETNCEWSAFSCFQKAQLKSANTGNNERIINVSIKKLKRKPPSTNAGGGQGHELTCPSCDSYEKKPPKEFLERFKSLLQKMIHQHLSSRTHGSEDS
VH: B1 VH
VL: B1 VL
notes: as for B1

Positions count from the first letter of the chain named. Names and notes keep the numbering of the source.

recombinant human IL-21R, extracellular domain fused to 8xHistidine tag (generated in house), sequence (Q9HBE5 other isoform, or with tags, fused parts or gaps limits assumed): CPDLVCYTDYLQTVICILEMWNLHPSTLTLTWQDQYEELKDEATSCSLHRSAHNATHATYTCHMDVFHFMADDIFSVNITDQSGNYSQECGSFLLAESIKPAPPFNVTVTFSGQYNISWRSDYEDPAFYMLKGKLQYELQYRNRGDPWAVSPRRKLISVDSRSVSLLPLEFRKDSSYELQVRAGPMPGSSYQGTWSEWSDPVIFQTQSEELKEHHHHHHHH

The target in the first assay is human CD8 on CD8+ T cells (human, UniProt P01732 22-235; P10966 22-210). In words: cell-based or functional assay.
human CD8 on CD8+ T cells, sequence (P01732 22-235, chain 1 of 2): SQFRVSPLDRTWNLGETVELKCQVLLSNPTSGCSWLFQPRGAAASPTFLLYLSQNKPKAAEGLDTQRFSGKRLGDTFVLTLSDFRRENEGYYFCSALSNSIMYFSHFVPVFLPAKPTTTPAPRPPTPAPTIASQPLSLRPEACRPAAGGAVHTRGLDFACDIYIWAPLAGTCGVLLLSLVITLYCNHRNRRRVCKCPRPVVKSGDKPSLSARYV
human CD8 on CD8+ T cells, sequence (P10966 22-210, chain 2 of 2): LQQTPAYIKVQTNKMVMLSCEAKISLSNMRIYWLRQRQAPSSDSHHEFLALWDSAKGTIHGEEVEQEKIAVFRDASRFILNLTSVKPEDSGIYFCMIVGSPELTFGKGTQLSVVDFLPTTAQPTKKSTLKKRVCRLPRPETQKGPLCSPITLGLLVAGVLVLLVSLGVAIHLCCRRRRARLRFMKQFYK
As for B1, the “STAT3 activation in human whole blood (pSTAT3, flow cytometry)” value is above 100 fold.
Still for that read-out and setting: the value for B2 was above 100 fold.
On the same count and under the same terms, for B3 the value was above 100 fold.

The next assay concerns the target T1, mouse CD8 (mouse, UniProt P10300 22-175, limits assumed).
T1 construct: also called mouse CD8b
T1 sequence (looked up): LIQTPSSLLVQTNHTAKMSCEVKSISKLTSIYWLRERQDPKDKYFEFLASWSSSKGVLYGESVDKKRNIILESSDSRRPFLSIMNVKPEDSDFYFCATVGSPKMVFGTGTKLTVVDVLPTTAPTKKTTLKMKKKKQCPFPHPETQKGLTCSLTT
Briefly: stated; no assay described.
B4: the binding result was “no binding”.

In another assay the target is T2, Human IL-21R (Biolegend, Catalog No. 773104) (human, UniProt Q9HBE5 20-232, limits assumed).
T2 construct: Bought protein; also called IL-21 receptor
T2 sequence (Q9HBE5 20-232 limits assumed): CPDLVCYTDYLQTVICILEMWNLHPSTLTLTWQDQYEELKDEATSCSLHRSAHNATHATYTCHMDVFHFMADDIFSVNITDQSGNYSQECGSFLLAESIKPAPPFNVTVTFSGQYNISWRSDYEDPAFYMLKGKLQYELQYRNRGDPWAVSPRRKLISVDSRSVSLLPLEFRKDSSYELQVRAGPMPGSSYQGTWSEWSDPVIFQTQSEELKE
Briefly: SPR 37 C.
In the case of B5, the “fold difference in IL-21R affinity against wild type IL-21” value is at most 2 fold.
The same measure, in the same setting: for B6 the value was at most 2 fold; for B7, at most 2 fold; for B8, at most 2 fold.
Turning to B9, the “fold difference in IL-21R affinity against wild type IL-21” value was at most 2 fold.

The next assay concerns the target recombinant human IL-21R, extracellular domain fused to 8xHistidine tag (generated in house) (human, UniProt Q9HBE5 20-232). Briefly: SPR 37 C.
As to B10, the binding result is recorded as “no binding”.
The same measure, in the same setting: for B11 the value was “no binding”; for B12, “no binding”.
Regarding B13, the binding result is “no binding”.
The same measure, in the same setting: the value for B14 was “no binding”.

The next assay has as its target T2, Human IL-21R (Biolegend, Catalog No. …). In words: SPR 37 C, Fc-captured fusion.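 Also: biacore SPR with anti-human IgG Fc surface and blank flow cell as reference, 10 min dissociation, double-referenced, 1:1 Langmuir fit with mass transport, triplicate runs.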
Take B5: the Kd (in general, the free concentration of one partner at which half of the binding sites on the other are occupied at equilibrium, for simple one-to-one binding) was 0.094 nM; the koff (in general, the rate constant with which the complex falls apart) worked out at 0.00119 s⁻¹; the kon (as a rule, the second-order rate constant of association) was 1.27e+07 M⁻¹ s⁻¹.
For B6, in that order: 0.106 nM, 0.00139 s⁻¹ and 1.31e+07 M⁻¹ s⁻¹.
Taken in the same sequence, the figures for B7 were 0.094 nM, 0.00113 s⁻¹ and 1.2e+07 M⁻¹ s⁻¹.
For B8, in that order: 0.093 nM, 0.00107 s⁻¹ and 1.16e+07 M⁻¹ s⁻¹.
Consider B9, for which the dissociation constant (Kd) is 0.106 nM, the off-rate (koff) was found to be 0.00139 s⁻¹ and the kon was determined as 1.31e+07 M⁻¹ s⁻¹.

Source of the values: patent US20230357343A1 (ASHER BIOTHERAPEUTICS, published 2023).
